From the supplement of paper PMC9112550, “Optimization of the antimicrobial peptide Bac7 by deep mutational scanning” (BMC Biology, 2022)

Test system: Escherichia coli TOP10
Assay: shrunken log2 fold change of peptide-encoding DNA abundance (4.5 h post-induction vs induction); higher = less antimicrobial activity (less host growth inhibition)
Details: time post-induction: 4.5 h; library: site-saturation at positions 5, 18, 19, 20
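Note: peptides expressed intracellularly from a pBAD plasmid library in pooled LB shake-flask culture, induced with 0.3% L-arabinose, DNA abundance read by NGS, three biological replicates, DESeq2 with apeglm shrinkage.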

Sequence: RRIRHRPPRLPRPRPRPCPWPRP
- shrunken log2 fold change: -0.168

Sequence: RRIRIRPPRLPRPRPRPVMCPRP
- shrunken log2 fold change: 0.062

Sequence: RRIRERPPRLPRPRPRPRVNPRP
- shrunken log2 fold change: -0.157

Sequence: RRIRARPPRLPRPRPRPHKTPRP
- shrunken log2 fold change: 0.0429

Sequence: RRIRCRPPRLPRPRPRPHMQPRP
- shrunken log2 fold change: -0.322

Sequence: RRIRCRPPRLPRPRPRPMKDPRP
- shrunken log2 fold change: -0.594

Sequence: RRIRTRPPRLPRPRPRPFRGPRP
- shrunken log2 fold change: -0.175

Sequence: RRIRQRPPRLPRPRPRPDQTPRP
- shrunken log2 fold change: -0.0116

Sequence: RRIRFRPPRLPRPRPRPHSIPRP
- shrunken log2 fold change: -0.248

Sequence: RRIRCRPPRLPRPRPRPDVFPRP
- shrunken log2 fold change: -0.151

Sequence: RRIRDRPPRLPRPRPRPEEEPRP
- shrunken log2 fold change: 0.00884

Sequence: RRIRWRPPRLPRPRPRPQMWPRP
- shrunken log2 fold change: 0.369

Sequence: RRIRDRPPRLPRPRPRPYVHPRP
- shrunken log2 fold change: -0.407

Sequence: RRIRTRPPRLPRPRPRPKYIPRP
- shrunken log2 fold change: -0.748

Sequence: RRIRVRPPRLPRPRPRPYYFPRP
- shrunken log2 fold change: -0.777

Sequence: RRIRFRPPRLPRPRPRPIMLPRP
- shrunken log2 fold change: -0.205

Sequence: RRIRCRPPRLPRPRPRPRIIPRP
- shrunken log2 fold change: -0.443

Sequence: RRIRERPPRLPRPRPRPVWIPRP
- shrunken log2 fold change: -0.556

Sequence: RRIRKRPPRLPRPRPRPHLTPRP
- shrunken log2 fold change: 0.055

Sequence: RRIRCRPPRLPRPRPRPRRPPRP
- shrunken log2 fold change: 0.654

Sequence: RRIRIRPPRLPRPRPRPGIYPRP
- shrunken log2 fold change: -0.585

Sequence: RRIRLRPPRLPRPRPRPWHPPRP
- shrunken log2 fold change: -0.0174

Sequence: RRIRGRPPRLPRPRPRPMNVPRP
- shrunken log2 fold change: -0.176

Sequence: RRIRDRPPRLPRPRPRPKAYPRP
- shrunken log2 fold change: 0.053

Sequence: RRIRKRPPRLPRPRPRPNWVPRP
- shrunken log2 fold change: -0.087

Sequence: RRIRWRPPRLPRPRPRPCLCPRP
- shrunken log2 fold change: -0.0914

Sequence: RRIRDRPPRLPRPRPRPIRIPRP
- shrunken log2 fold change: -0.0935

Sequence: RRIRMRPPRLPRPRPRPRRKPRP
- shrunken log2 fold change: 0.416

Sequence: RRIRPRPPRLPRPRPRPDVPPRP
- shrunken log2 fold change: -0.0575

Sequence: RRIRLRPPRLPRPRPRPTVSPRP
- shrunken log2 fold change: 0.0646

Sequence: RRIRMRPPRLPRPRPRPPINPRP
- shrunken log2 fold change: -0.195

Sequence: RRIRFRPPRLPRPRPRPKKCPRP
- shrunken log2 fold change: 0.107

Sequence: RRIRFRPPRLPRPRPRPTIHPRP
- shrunken log2 fold change: 0.865

Sequence: RRIRVRPPRLPRPRPRPIGWPRP
- shrunken log2 fold change: 0.213

Sequence: RRIRFRPPRLPRPRPRPGQTPRP
- shrunken log2 fold change: 0.0249

Sequence: RRIRERPPRLPRPRPRPFVPPRP
- shrunken log2 fold change: -0.507

Sequence: RRIRMRPPRLPRPRPRPGSRPRP
- shrunken log2 fold change: 0.991

Sequence: RRIRFRPPRLPRPRPRPHSMPRP
- shrunken log2 fold change: -0.328

Sequence: RRIRMRPPRLPRPRPRPLRTPRP
- shrunken log2 fold change: 3.45

Sequence: RRIRFRPPRLPRPRPRPIHNPRP
- shrunken log2 fold change: -0.745

Sequence: RRIRMRPPRLPRPRPRPKMSPRP
- shrunken log2 fold change: 0.123

Sequence: RRIRMRPPRLPRPRPRPEPFPRP
- shrunken log2 fold change: 0.427

Sequence: RRIRVRPPRLPRPRPRPDEWPRP
- shrunken log2 fold change: 0.0467

Sequence: RRIRWRPPRLPRPRPRPPPSPRP
- shrunken log2 fold change: 0.794

Sequence: RRIRIRPPRLPRPRPRPGVWPRP
- shrunken log2 fold change: 0.191

Sequence: RRIRQRPPRLPRPRPRPAIHPRP
- shrunken log2 fold change: 0.135

Sequence: RRIRPRPPRLPRPRPRPRYRPRP
- shrunken log2 fold change: 0.0725

Sequence: RRIRGRPPRLPRPRPRPIKDPRP
- shrunken log2 fold change: 0.309

Sequence: RRIRNRPPRLPRPRPRPDQVPRP
- shrunken log2 fold change: -0.148

Sequence: RRIRHRPPRLPRPRPRPPVLPRP
- shrunken log2 fold change: 0.0936

Sequence: RRIRGRPPRLPRPRPRPDWTPRP
- shrunken log2 fold change: 0.316

Sequence: RRIRQRPPRLPRPRPRPPRFPRP
- shrunken log2 fold change: 1.51

Sequence: RRIRWRPPRLPRPRPRPIYFPRP
- shrunken log2 fold change: -0.198

Sequence: RRIRNRPPRLPRPRPRPSMLPRP
- shrunken log2 fold change: -0.145

Sequence: RRIRDRPPRLPRPRPRPMLTPRP
- shrunken log2 fold change: 0.155

Sequence: RRIRGRPPRLPRPRPRPCFDPRP
- shrunken log2 fold change: 0.299

Sequence: RRIRIRPPRLPRPRPRPRKIPRP
- shrunken log2 fold change: -0.413

Sequence: RRIRTRPPRLPRPRPRPNIFPRP
- shrunken log2 fold change: -0.174

Sequence: RRIRLRPPRLPRPRPRPRTYPRP
- shrunken log2 fold change: -0.319

Sequence: RRIRKRPPRLPRPRPRPEVAPRP
- shrunken log2 fold change: 1.9

Sequence: RRIRDRPPRLPRPRPRPPANPRP
- shrunken log2 fold change: 0.0989

Sequence: RRIRWRPPRLPRPRPRPTKRPRP
- shrunken log2 fold change: 0.202

Sequence: RRIRMRPPRLPRPRPRPYDAPRP
- shrunken log2 fold change: 0.11

Sequence: RRIRWRPPRLPRPRPRPSWRPRP
- shrunken log2 fold change: 0.0809

Sequence: RRIRYRPPRLPRPRPRPIMAPRP
- shrunken log2 fold change: -0.708

Sequence: RRIRTRPPRLPRPRPRPCWMPRP
- shrunken log2 fold change: -0.259

Sequence: RRIRPRPPRLPRPRPRPCSNPRP
- shrunken log2 fold change: 0.137

Sequence: RRIRNRPPRLPRPRPRPLFFPRP
- shrunken log2 fold change: -0.217

Sequence: RRIRGRPPRLPRPRPRPRCHPRP
- shrunken log2 fold change: 0.564

Sequence: RRIRGRPPRLPRPRPRPIHYPRP
- shrunken log2 fold change: -0.242

Sequence: RRIRLRPPRLPRPRPRPSDWPRP
- shrunken log2 fold change: -0.106

Sequence: RRIRGRPPRLPRPRPRPMRTPRP
- shrunken log2 fold change: 2

Sequence: RRIRKRPPRLPRPRPRPFNYPRP
- shrunken log2 fold change: -0.463

Sequence: RRIRMRPPRLPRPRPRPMLEPRP
- shrunken log2 fold change: 0.0346

Sequence: RRIRNRPPRLPRPRPRPMCHPRP
- shrunken log2 fold change: 0.0429

Sequence: RRIRRRPPRLPRPRPRPQMRPRP
- shrunken log2 fold change: 1.05

Sequence: RRIRFRPPRLPRPRPRPDMVPRP
- shrunken log2 fold change: -0.499

Sequence: RRIRIRPPRLPRPRPRPNEEPRP
- shrunken log2 fold change: -0.179

Sequence: RRIRRRPPRLPRPRPRPLRWPRP
- shrunken log2 fold change: 0.732

Sequence: RRIRQRPPRLPRPRPRPHYEPRP
- shrunken log2 fold change: -0.167

Sequence: RRIRIRPPRLPRPRPRPKGMPRP
- shrunken log2 fold change: -0.214

Sequence: RRIRLRPPRLPRPRPRPSCTPRP
- shrunken log2 fold change: -0.501

Sequence: RRIRWRPPRLPRPRPRPYQSPRP
- shrunken log2 fold change: -0.583

Sequence: RRIRERPPRLPRPRPRPFMYPRP
- shrunken log2 fold change: -0.551

Sequence: RRIRLRPPRLPRPRPRPRCTPRP
- shrunken log2 fold change: 0.0989

Sequence: RRIRFRPPRLPRPRPRPGKGPRP
- shrunken log2 fold change: -0.159

Sequence: RRIRPRPPRLPRPRPRPFKNPRP
- shrunken log2 fold change: -0.615

Sequence: RRIRQRPPRLPRPRPRPYWWPRP
- shrunken log2 fold change: -0.143

Sequence: RRIRHRPPRLPRPRPRPVQWPRP
- shrunken log2 fold change: 0.0118

Sequence: RRIRQRPPRLPRPRPRPNMMPRP
- shrunken log2 fold change: -0.442

Sequence: RRIRDRPPRLPRPRPRPKFFPRP
- shrunken log2 fold change: 0.136

Sequence: RRIRMRPPRLPRPRPRPMFTPRP
- shrunken log2 fold change: 0.0379

Sequence: RRIRCRPPRLPRPRPRPYINPRP
- shrunken log2 fold change: -0.968

Sequence: RRIRHRPPRLPRPRPRPKTHPRP
- shrunken log2 fold change: -0.314

Sequence: RRIRHRPPRLPRPRPRPRWEPRP
- shrunken log2 fold change: 0.136

Sequence: RRIRDRPPRLPRPRPRPMSVPRP
- shrunken log2 fold change: -0.00308

Sequence: RRIRKRPPRLPRPRPRPYNMPRP
- shrunken log2 fold change: -0.352

Sequence: RRIRPRPPRLPRPRPRPDIWPRP
- shrunken log2 fold change: 0.144

Sequence: RRIRCRPPRLPRPRPRPAVFPRP
- shrunken log2 fold change: -0.127

Sequence: RRIRIRPPRLPRPRPRPRDHPRP
- shrunken log2 fold change: -0.0591

Sequence: RRIRARPPRLPRPRPRPGCSPRP
- shrunken log2 fold change: 0.505

Sequence: RRIRYRPPRLPRPRPRPDRQPRP
- shrunken log2 fold change: -0.0345

Sequence: RRIRNRPPRLPRPRPRPVKNPRP
- shrunken log2 fold change: -0.157

Sequence: RRIRVRPPRLPRPRPRPRFIPRP
- shrunken log2 fold change: -0.318

Sequence: RRIRNRPPRLPRPRPRPIMHPRP
- shrunken log2 fold change: 0.00105

Sequence: RRIRNRPPRLPRPRPRPEFAPRP
- shrunken log2 fold change: 0.175

Sequence: RRIRQRPPRLPRPRPRPQQCPRP
- shrunken log2 fold change: -0.132

Sequence: RRIRPRPPRLPRPRPRPAQCPRP
- shrunken log2 fold change: 0.148

Sequence: RRIRCRPPRLPRPRPRPTVHPRP
- shrunken log2 fold change: -0.413
